Test results published in publication PMC6114778, “Divalent cation and chloride ion sites of chicken acid sensing ion channel 1a elucidated by x-ray crystallography” (PLoS ONE, 2018).

Tests used:
[1] = target: the molecule itself; test: crystal structure; Δ13 crystals grown at 20°C, HEPES pH 6.9, sodium formate, PEG 3,350, soaked in 50 mM BaCl2; space group H3; desensitized state; anomalous diffraction
[2] = target: the molecule itself; test: crystal structure; Δ25 crystals grown at high pH (Tris pH 8.5) with BaCl2, soaked in 50 mM BaCl2 or 150 mM NaBr; space group P212121; resting state; anomalous diffraction

B1: chicken ASIC1a Δ13 crystallization construct (residues 14-463 of chicken ASIC1) (domain or fragment, UniProt Q1XA76 14-463, looked up)
chain: GQPVSIQAFASSSTLHGISHIFSYERLSLKRVVWALCFMGSLALLALVCTNRIQYYFLYPHVTKLDEVAATRLTFPAVTFCNLNEFRFSRVTKNDLYHAGELLALLNNRYEIPDTQTADEKQLEILQDKANFRNFKPKPFNMLEFYDRAGHDIREMLLSCFFRGEQCSPEDFKVVFTRYGKCYTFNAGQDGKPRLITMKGGTGNGLEIMLDIQQDEYLPVWGETDETSFEAGIKVQIHSQDEPPLIDQLGFGVAPGFQTFVSCQEQRLIYLPPPWGDCKATTGDSEFYDTYSITACRIDCETRYLVENCNCRMVHMPGDAPYCTPEQYKECADPALDFLVEKDNEYCVCEMPCNVTRYGKELSMVKIPSKASAKYLAKKYNKSEQYIGENILVLDIFFEALNYETIEQKKAYEVAGLLGDIGGQMGLFIGASILTVLELFDYAYEVIKHR
notes: chicken ASIC1 (acid sensing ion channel 1a), residues 14-463; 13 residues removed from the amino-terminus and 64 from the carboxy-terminus; Homotrimeric channel; crystals in space group H3; also called desensitized channel; cASIC1a
Q: Does B1 bind [1]?
A: Result: binds

B2: chicken ASIC1a Δ25 crystallization construct (residues 25-463 of chicken ASIC1) (domain or fragment, UniProt Q1XA76 25-463, looked up)
chain: SSTLHGISHIFSYERLSLKRVVWALCFMGSLALLALVCTNRIQYYFLYPHVTKLDEVAATRLTFPAVTFCNLNEFRFSRVTKNDLYHAGELLALLNNRYEIPDTQTADEKQLEILQDKANFRNFKPKPFNMLEFYDRAGHDIREMLLSCFFRGEQCSPEDFKVVFTRYGKCYTFNAGQDGKPRLITMKGGTGNGLEIMLDIQQDEYLPVWGETDETSFEAGIKVQIHSQDEPPLIDQLGFGVAPGFQTFVSCQEQRLIYLPPPWGDCKATTGDSEFYDTYSITACRIDCETRYLVENCNCRMVHMPGDAPYCTPEQYKECADPALDFLVEKDNEYCVCEMPCNVTRYGKELSMVKIPSKASAKYLAKKYNKSEQYIGENILVLDIFFEALNYETIEQKKAYEVAGLLGDIGGQMGLFIGASILTVLELFDYAYEVIKHR
notes: chicken ASIC1 (acid sensing ion channel 1a), residues 25-463; 24 residues removed from the amino-terminus and 64 from the carboxy-terminus; Homotrimeric channel; three subunits around a molecular 3-fold axis in the P212121 crystals; also called resting channel; cASIC1a
Q: Does B2 bind [2]?
A: Result: binds
